Test results taken from publication PMC8154232.

Columns and labels:
p50-RHR homodimer = p50-RHR homodimer (mouse, UniProt P25799 39-363); assay: NMR
p50-NTD = p50-NTD (mouse, UniProt P25799 39-245); assay: NMR
p50-NTD, sequence (P25799 39-245): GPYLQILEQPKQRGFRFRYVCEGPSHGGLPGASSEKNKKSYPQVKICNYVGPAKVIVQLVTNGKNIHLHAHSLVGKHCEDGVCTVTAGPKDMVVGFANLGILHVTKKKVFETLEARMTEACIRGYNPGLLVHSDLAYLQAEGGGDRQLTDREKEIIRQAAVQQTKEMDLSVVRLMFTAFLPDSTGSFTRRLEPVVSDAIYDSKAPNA

p50-RHR homodimer, sequence (P25799 39-363): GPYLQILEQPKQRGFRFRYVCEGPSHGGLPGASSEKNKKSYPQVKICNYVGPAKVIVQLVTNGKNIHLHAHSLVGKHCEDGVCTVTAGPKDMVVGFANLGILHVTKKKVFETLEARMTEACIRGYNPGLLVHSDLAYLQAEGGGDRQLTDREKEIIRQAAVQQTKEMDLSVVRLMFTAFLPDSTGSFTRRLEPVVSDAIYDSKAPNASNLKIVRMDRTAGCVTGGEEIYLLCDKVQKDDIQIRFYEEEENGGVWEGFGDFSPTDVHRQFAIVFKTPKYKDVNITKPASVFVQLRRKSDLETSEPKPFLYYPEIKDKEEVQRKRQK

B1: full-kB (14-mer) (dsDNA)
DNA 1: TCGGGAATTCCCGA
DNA 2: TCGGGAATTCCCGA
binding result (p50-RHR homodimer): binds
binding result (p50-NTD): binds

B2: half-kB (18-mer) (dsDNA)
DNA 1: TTCGGGAAATAGAAACTC
DNA 2: GAGTTTCTATTTCCCGAA
binding result (p50-NTD): binds

B3: half-kBL (21-mer) (dsDNA)
DNA 1: CTTCGGGAAATAGAAACTCTC
DNA 2: GAGAGTTTCTATTTCCCGAAG
binding result (p50-NTD): binds
